From publication PMC3737541, “Structure-function analysis of the EF-hand protein centrin-2 for its intracellular localization and nucleotide excision repair” (Nucleic Acids Research, 2013)
Substitutions are numbered along the chain they refer to. Each block holds one binder with its values, some of them ahead of it.

Key:
[1] = molecular target: T1, FLAG-XPC/RAD23B-His complex (human, UniProt Q01831 1-940; P54727 1-409); assay: cell-based or functional assay
T1 sequence (looked up) 1: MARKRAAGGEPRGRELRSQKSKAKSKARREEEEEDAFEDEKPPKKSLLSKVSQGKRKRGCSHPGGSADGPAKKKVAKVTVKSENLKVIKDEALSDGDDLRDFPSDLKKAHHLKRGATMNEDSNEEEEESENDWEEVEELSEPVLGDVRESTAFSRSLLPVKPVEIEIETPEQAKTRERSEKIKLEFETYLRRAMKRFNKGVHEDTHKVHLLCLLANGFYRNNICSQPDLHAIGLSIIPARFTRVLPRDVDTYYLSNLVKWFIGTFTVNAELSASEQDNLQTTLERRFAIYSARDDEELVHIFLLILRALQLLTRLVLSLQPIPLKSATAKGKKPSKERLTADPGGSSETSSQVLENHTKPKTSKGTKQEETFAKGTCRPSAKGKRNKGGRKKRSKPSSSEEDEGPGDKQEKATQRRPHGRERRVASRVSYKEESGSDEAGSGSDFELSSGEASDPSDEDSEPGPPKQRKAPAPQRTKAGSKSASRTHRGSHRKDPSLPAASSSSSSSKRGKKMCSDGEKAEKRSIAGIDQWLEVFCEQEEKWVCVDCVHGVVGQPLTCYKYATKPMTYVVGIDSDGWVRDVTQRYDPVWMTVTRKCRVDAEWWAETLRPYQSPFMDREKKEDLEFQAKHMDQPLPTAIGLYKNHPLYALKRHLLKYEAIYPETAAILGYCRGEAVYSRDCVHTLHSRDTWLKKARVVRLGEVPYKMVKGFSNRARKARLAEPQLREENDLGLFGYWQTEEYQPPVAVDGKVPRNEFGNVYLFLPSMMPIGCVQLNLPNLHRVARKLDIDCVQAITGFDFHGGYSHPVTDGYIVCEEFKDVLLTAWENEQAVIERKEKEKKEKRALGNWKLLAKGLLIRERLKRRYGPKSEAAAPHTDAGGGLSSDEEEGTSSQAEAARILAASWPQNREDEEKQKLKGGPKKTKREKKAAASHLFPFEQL
T1 sequence (looked up) 2: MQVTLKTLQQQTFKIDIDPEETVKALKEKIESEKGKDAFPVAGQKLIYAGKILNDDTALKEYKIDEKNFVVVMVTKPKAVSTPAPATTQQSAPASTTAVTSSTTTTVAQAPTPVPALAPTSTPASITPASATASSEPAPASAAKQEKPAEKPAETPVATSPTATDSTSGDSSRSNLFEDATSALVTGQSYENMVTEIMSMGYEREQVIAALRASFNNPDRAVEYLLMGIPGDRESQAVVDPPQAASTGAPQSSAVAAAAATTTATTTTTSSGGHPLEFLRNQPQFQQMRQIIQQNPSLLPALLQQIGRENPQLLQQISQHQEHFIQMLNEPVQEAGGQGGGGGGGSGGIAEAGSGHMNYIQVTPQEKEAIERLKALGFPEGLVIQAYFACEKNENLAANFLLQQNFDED

FLAG-XPA = molecular target: T2, FLAG-XPA (human, UniProt P23025 1-273); assay: pull-down; FLAG-XPA (0.5 µg) immobilised on anti-DDDDK-tag magnetic beads; centrin-2 in buffer B, on ice 1 h; elution with FLAG peptide; immunoblot; no XPC/RAD23B; conditions: both partners purified
T2 construct: XPA protein, human; also called purified recombinant XPA
T2 sequence (P23025 whole entry): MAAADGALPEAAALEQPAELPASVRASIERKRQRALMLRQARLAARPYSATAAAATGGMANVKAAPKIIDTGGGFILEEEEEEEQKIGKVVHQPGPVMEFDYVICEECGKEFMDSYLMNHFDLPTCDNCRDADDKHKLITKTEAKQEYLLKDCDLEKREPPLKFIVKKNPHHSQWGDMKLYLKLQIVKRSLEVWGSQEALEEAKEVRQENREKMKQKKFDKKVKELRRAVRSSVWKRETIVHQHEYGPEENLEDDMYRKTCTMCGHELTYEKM

[2] = molecular target: T1, FLAG-XPC/RAD23B-His complex; assay: pull-down; purified GST-centrin-2 (WT, N or C) incubated with FLAG-XPC/RAD23B-His, pulled down with anti-FLAG antibody beads; immunoblot; conditions: both partners purified
[3] = molecular target: T1, FLAG-XPC/RAD23B-His complex; assay: pull-down; FLAG-XPC/RAD23B-His immobilised on anti-FLAG magnetic beads, incubated with centrin-2 (WT or C domain, GST removed), extensive washing, elution with FLAG peptide; reconstituted heterotrimers; conditions: both partners purified

B1: centrin-2 (WT), detached from the GST tag (natural protein, human, UniProt P41208 1-172, looked up)
chain: MASNFKKANMASSSQRKRMSPKPELTEEQKQEIREAFDLFDADGTGTIDVKELKVAMRALGFEPKKEEIKKMISEIDKEGTGKMNFGDFLTVMTQKMSEKDTKEEILKAFKLFDDDETGKISFKNLKRVAKELGENLTDEELQEMIDEADRDGDGEVSEQEFLRIMKKTSLY
notes: centrin-2, human, wild type; also called WT centrin-2; full-length protein; source: E. coli BL21 (DE3), purified (GSTrap FF, HiTrap Phenyl FF), GST removed with PreScission protease; not shown: GST, N-terminal, cleaved
EMSA: enhancement of the binding of XPC/RAD23B to a 180 bp DNA with a 6-4PP by centrin-2 (WT) [1]: ~2 fold | binding result (FLAG-XPA): binds

B2: centrin-2 M4 mutant, recombinant (natural protein, human, UniProt P41208 1-172, looked up)
chain: B1 chain with L112A, F113A, L133A, M145A
notes: centrin-2, human, point mutant M4 of the WT protein (intact N domain); also called M4 mutant of centrin-2; source: E. coli BL21 (DE3), purified (GSTrap FF, HiTrap Phenyl FF)
binding result (FLAG-XPA): binds

Results, then the binder that gave them:

binding result [2]: binds
B3: GST-centrin-2 C domain (domain or fragment, human, UniProt P41208 94-172, looked up)
chain: TQKMSEKDTKEEILKAFKLFDDDETGKISFKNLKRVAKELGENLTDEELQEMIDEADRDGDGEVSEQEFLRIMKKTSLY
notes: centrin-2, human, carboxyl-terminal (C) domain, residues 94-172; source: E. coli BL21 (DE3), purified (GSTrap FF, HiTrap Phenyl FF); not shown: GST, N-terminal, kept

binding result [3]: binds
B4: centrin-2 C domain, detached from the GST tag (domain or fragment, human, UniProt P41208 94-172, looked up)
chain: B3 chain
notes: centrin-2, human, carboxyl-terminal (C) domain, residues 94-172; also called the C domain alone; source: E. coli BL21 (DE3), purified (GSTrap FF, HiTrap Phenyl FF), GST removed with PreScission protease; not shown: GST, N-terminal, cleaved
